In experiment [1] the target is T1, human FcRH5 on stably transfected cells (BJAB.huFcRH5, OPM2.huFcRH5) (human, UniProt Q96RD9 16-977).
T1 construct: also called BJAB-FcRH5; OPM2-FcRH5
T1 chain: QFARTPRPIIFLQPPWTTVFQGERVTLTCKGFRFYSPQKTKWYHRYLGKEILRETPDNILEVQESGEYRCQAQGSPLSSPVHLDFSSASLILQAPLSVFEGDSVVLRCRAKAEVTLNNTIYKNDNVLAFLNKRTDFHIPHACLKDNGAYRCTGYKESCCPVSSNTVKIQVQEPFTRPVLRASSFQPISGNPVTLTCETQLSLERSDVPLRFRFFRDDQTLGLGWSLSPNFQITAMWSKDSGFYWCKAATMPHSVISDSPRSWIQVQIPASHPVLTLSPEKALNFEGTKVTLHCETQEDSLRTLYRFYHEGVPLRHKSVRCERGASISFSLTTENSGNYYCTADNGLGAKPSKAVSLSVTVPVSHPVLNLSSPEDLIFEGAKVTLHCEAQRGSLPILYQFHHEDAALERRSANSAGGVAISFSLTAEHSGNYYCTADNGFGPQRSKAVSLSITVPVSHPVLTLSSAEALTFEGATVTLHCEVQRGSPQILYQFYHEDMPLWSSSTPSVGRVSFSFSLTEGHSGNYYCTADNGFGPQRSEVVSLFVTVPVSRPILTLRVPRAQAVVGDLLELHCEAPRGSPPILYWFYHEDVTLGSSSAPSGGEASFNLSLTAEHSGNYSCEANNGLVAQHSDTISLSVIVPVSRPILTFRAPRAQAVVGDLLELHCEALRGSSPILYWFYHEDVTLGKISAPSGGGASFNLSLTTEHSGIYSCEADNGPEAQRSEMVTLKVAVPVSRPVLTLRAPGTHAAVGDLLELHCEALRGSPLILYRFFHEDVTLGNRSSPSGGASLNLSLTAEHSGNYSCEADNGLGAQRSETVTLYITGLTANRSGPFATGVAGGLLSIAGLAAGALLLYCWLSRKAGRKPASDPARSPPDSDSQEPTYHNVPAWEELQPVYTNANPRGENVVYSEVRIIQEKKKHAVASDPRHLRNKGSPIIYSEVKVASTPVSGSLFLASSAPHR
Briefly: Scatchard analysis: 0.5 nM 125I-labeled antibody competed with the unlabeled antibody (50 to 0.02 nM) on OPM2.huFcRH5 cells, 4 h at 4 C; St. Error 0.012. The protocol:
(§1) To further determine binding of the FcRH5 murine antibodies and IgG clones, binding of iodinated IgG variants to OPM2 cells expressing human FcRH5 and SVT2 cells expressing cynomologous FcRH5, Scatchard analysis was performed (Table 9A).
(§2) For Scatchard analysis, 0.5 nM I¹²⁵ labeled murine or IgG clone anti-FcRH5 was competed against unlabeled murine or IgG clone anti-FcRH5, respectively, ranging from 50 to 0.02 nM (12 step 1:2 serial dilution) in the presence of a transfected OPM2 line stably expressing human-FcRH5 and a transfected SVT2 line stably expressing cynomologous-FcRH5. After a four hour incubation at 4° C., cells were washed and cell pellet counts were read by a gamma counter (1470 WIZARD Automatic Gamma Counter; Perkin Elmer, Walthem, Mass.). All points were done in triplicate and counted for 10 minutes. The average CPM was used for Kd calculation using the New Ligand (Genentech, South San Francisco, Calif.) program.

For experiment [2], the target named is T2, cynomolgus FcRH5 on stably transfected SVT2 cells (cynomologous monkey).
T2 construct: also called cyno FcRH5; cynoFcRH5
T2 chain: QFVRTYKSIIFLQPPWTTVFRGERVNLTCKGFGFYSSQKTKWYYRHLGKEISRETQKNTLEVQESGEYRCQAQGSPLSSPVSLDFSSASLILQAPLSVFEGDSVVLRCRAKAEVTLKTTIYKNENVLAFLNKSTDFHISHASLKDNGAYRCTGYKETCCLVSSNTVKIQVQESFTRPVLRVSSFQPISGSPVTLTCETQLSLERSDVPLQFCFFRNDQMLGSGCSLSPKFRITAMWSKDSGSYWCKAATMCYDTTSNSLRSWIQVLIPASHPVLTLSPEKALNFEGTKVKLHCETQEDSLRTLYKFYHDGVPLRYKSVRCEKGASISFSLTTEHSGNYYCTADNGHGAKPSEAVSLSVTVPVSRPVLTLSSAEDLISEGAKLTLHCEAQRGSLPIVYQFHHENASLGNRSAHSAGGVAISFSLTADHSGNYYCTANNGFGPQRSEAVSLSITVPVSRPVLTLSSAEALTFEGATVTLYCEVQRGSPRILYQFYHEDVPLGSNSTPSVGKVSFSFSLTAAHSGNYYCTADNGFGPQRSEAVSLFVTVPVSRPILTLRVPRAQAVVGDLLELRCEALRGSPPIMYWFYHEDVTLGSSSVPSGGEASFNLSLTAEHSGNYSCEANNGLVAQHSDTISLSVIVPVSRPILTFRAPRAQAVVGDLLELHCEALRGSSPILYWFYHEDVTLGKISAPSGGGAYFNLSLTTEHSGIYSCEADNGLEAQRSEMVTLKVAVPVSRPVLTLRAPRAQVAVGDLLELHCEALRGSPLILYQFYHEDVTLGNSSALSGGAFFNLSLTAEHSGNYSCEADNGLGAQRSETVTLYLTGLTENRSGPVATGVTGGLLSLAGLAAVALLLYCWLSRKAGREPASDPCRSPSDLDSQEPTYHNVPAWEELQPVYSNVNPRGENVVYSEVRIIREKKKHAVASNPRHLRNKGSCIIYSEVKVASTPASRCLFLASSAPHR
Briefly: Scatchard analysis: 0.5 nM 125I-labeled antibody competed with the unlabeled antibody (50 to 0.02 nM) on SVT2.cyFcRH5 cells, 4 h at 4 C; St. Error 0.027. The protocol:
as §1, §2

Experiment [3] has as its target T2, cynomolgus FcRH5 on stably transfected …. The experiment can be described thus: Scatchard analysis: 0.5 nM 125I-labeled antibody competed with the unlabeled antibody (50 to 0.02 nM) on SVT2.cyFcRH5 cells (printed SVT2.cyFcRHS), 4 h at 4 C; St. Error 0.012. The procedure:
as §1, §2

Experiment [4] concerns the target T1, human FcRH5 on stably transfected cells …. The experiment can be described thus: Scatchard analysis: 0.5 nM 125I-labeled antibody competed with the unlabeled antibody (50 to 0.02 nM) on OPM2.huFcRH5 cells, 4 h at 4 C; St. Error 0.027. The procedure: as §1, §2

The Kd is the concentration at which binding is half-saturated.

B1: humanized anti-FcRH5 antibody 13G9 version 1 (antibody, human IgG1, V domains shown)
VH: EVQLVQSGGGLVQPGGSLRLSCAASGYTFTNYGMNWVRQAPGKGLEWVGWVNTYTGEPTYTDDFKGRFTFSVDTSKSTVYLQMNSLRAEDTAVYYCARRSIPYYYAMDYWGQGTLVTVS
VL: DIQMTQSPSSLSASVGDRVTITCKASQNVGSNVAWYQQKPGKAPKALIYSASYRYSGVPSRFSGSGSGTDFTLTISSLQPEDFATYYCQQYKTWTFGQGTKVEIKR
notes: also called hu13G9.v1; hu13G9 v1
For B1, the Kd in experiment [1] amounted to 0.2 nM; in experiment [2], 0.56 nM.

B2: humanized anti-FcRH5 antibody hu13G9.1b (antibody, human IgG1, V domains shown)
VH: EVQLVQSGGGLVQPGGSLRLSCAASGYTFTNYGMNWVRQAPGKGLEWVGWVNTYTGEPTYTDDFKGRFTFSVDTSKSTVYLQMNSLRAEDTAVYYCARRSIPYYYAMDYWGQGTLVTVS
VL: DIQMTQSPSSLSASVGDRVTITCKASQNVGSNVAWYQQKPGKAPKALIYSASYRYSGVPSRFSGSGSGTDFTLTISSLQPEDFATYFCQQYKTWTFGQGTKVEIKR
notes: Full IgG as hu13G9.1a (human IgG1, kappa)
In the case of B2, the Kd in experiment [3] worked out at 0.53 nM; in experiment [4], 0.3 nM.
